Holding throughout (experiment): SEC-MALS; SEC-LS: size exclusion chromatography coupled light scattering, Agilent MDS system, Agilent BioSEC 5 1000 Å or GE Superdex 200 column; detector offsets calibrated with BSA, concentrations by refractive index
In general terms: In gel filtration, larger molecules generally elute earlier.

The target of series [1] is Dg_(GH172a) (HMPREF9455_02467), DUF2961 family GH172 exo-D-arabinofuranosidase from Dysgonomonas gadei (Dysgonomonas gadei) (UniProt F5IZF0).
For series [2], the target named is Dg_(GH172b) (HMPREF9455_02471), DUF2961 family GH172 exo-D-arabinofuranosidase from Dysgonomonas gadei (Dysgonomonas gadei) (UniProt F5IZF4).
The target of series [3] is Dg_(GH172c) (HMPREF9455_02479), DUF2961 family GH172 exo-D-arabinofuranosidase from Dysgonomonas gadei (Dysgonomonas gadei) (UniProt F5IZG2).
Series [4] deals with Myc_(GH172) (GII36_05205), DUF2961 homolog from Candidatus Mycosynbacter amalyticus (Candidatus Mycosynbacter amalyticus).
Series [5] deals with the molecule itself.

In general, stoichiometry N refers to the number of molecules, sites or subunits per partner or assembly.

As for “Dg_(GH172a) (HMPREF9455_02467), DUF2961 family GH172 exo-D-arabinofuranosidase from Dysgonomonas gadei (from UniProt F5IZF0 1-386) (enzyme)”, the stoichiometry N in series [1] is 12.

Molecule “Dg_(GH172b) (HMPREF9455_02471), DUF2961 family GH172 exo-D-arabinofuranosidase from Dysgonomonas gadei (from UniProt F5IZF4 1-643) (enzyme)” gave a stoichiometry N in series [2] of 2.

Turning to “Dg_(GH172c) (HMPREF9455_02479), DUF2961 family GH172 exo-D-arabinofuranosidase from Dysgonomonas gadei (from UniProt F5IZG2 1-402) (enzyme)”, the stoichiometry N in series [3] came out at 6.

Molecule “Myc_(GH172) (GII36_05205), DUF2961 homolog from Candidatus Mycosynbacter amalyticus (enzyme)” displayed a stoichiometry N in series [4] of 3.

B1: Noc_(GH172) (O3I_017420), DUF2961 family GH172 enzyme from Nocardia brasiliensis (enzyme, UniProt K0EX55 1-342, looked up)
chain: MTPPRRSELWLLDDTRTRSVSAENPTGAPGGGARATTGTGAHAARLLGPGWKISPSIVLGDGETATLADVSGPGVLRHCWLTTDRAALRELTLRMYWDDAAEPAIDVPLGDFFCNGWDELALVDSEMVVVAPAGGLNSYWPMPFRRRARITLENHCGRSVPVYYQITYGEEDVPGEAGYLHARWSRSAPLGSPAVHTLLDTGPARGRYVGTYLAIRPGAPRWWGEGEMKFYLDGDDEYPTLCGTGTEDYFGGAWNFDMDGKYRTYSTAYLGLPQALPADEIYQAHQRFGMYRWHVHDPICFHRELRVTVQGLGWRDSDTYLPLEDAEIATTVWWYQEVPPSG
notes: O3I_017420, DUF2961 homologue, Nocardia brasiliensis; codon-optimized gene bought from Twist Biosciences; also called GH172Noc; source: E. coli BL21-DE3, purified (IMAC, size exclusion chromatography)
For B1, in series [5], the “stoichiometry N” value was determined as 3.

The record behind these values is paper PMC10115798, “Identification of D-arabinan-degrading enzymes in mycobacteria” (Nature Communications, 2023).
